Data taken from article PMC9926306.

Target: ABCA1 (mouse (endogenous in J774)) (UniProt P41233)
UniProt P41233, sequence (P41233 whole entry): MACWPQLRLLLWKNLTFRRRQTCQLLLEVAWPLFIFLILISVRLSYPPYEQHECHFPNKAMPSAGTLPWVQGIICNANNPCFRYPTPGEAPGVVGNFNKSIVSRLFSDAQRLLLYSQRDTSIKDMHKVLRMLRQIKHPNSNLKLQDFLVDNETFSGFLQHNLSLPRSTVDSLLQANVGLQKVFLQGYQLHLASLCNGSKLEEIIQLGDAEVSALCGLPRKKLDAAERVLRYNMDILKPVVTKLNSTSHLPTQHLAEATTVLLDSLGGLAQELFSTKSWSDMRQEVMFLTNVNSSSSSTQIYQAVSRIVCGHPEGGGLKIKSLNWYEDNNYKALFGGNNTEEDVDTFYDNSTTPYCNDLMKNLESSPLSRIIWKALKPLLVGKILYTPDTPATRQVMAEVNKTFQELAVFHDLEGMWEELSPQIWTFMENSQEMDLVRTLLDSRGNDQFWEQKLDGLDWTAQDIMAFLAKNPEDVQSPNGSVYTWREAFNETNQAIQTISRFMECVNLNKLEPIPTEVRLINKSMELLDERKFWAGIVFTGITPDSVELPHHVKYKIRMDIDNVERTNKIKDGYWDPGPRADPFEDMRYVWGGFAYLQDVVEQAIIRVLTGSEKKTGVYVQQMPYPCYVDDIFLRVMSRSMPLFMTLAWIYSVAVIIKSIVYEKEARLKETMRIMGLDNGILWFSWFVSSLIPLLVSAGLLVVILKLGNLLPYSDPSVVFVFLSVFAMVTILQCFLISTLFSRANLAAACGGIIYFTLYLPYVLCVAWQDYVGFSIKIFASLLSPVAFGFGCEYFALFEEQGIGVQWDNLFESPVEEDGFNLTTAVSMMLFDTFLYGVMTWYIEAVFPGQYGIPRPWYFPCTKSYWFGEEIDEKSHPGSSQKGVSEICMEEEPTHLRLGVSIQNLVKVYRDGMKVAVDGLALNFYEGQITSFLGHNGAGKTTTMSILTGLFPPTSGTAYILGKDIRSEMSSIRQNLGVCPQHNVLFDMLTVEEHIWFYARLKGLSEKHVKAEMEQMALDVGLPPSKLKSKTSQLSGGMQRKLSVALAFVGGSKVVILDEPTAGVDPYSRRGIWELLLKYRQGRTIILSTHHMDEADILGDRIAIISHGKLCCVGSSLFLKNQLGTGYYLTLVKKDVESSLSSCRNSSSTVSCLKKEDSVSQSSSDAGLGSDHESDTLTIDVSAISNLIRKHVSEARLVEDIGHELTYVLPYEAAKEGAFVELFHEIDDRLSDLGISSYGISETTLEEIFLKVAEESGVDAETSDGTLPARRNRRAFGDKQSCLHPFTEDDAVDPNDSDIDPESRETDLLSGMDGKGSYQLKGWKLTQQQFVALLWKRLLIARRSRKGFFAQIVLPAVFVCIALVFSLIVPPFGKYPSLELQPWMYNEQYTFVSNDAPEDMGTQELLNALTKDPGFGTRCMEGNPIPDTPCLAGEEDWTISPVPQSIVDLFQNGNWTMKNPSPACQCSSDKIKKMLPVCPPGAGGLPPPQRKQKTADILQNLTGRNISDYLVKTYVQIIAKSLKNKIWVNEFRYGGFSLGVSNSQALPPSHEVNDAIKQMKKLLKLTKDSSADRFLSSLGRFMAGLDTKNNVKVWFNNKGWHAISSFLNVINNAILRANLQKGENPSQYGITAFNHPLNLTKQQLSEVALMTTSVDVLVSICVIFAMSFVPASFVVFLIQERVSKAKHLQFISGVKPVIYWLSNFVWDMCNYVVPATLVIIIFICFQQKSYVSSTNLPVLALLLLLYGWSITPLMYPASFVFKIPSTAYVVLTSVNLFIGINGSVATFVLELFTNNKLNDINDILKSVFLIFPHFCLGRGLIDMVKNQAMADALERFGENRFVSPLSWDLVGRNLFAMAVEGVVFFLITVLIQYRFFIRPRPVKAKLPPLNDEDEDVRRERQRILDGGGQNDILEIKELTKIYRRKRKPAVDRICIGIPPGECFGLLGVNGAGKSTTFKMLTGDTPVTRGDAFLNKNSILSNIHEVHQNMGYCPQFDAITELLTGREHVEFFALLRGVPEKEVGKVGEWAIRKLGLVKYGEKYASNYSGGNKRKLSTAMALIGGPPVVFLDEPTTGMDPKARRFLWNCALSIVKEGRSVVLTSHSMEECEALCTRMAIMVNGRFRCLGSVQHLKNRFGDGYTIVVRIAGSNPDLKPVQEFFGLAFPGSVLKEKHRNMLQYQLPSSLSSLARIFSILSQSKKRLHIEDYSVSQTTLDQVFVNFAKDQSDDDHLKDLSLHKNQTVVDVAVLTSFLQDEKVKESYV

Row | percent BODIPY-cholesterol efflux from J774 cells treated with cAMP (ABCA1 upregulated), apoA-I 10 ug/ml, 6 and 24 h; value after 24 h [%] | Substance
1 | 27.9 | apoA-I[K107del] (natural protein)
2 | 28.7 | WT apoA-I (from UniProt P02647 19-267) (natural protein)
